From the supplement of paper PMC11908140

B1: library; numbered along this chain (parent)
chain: MRKPRAAVGSGHRKQAASQEGRQKHAKNNSQAKPSACDGLARQPEEVVLQASVSSYHLFRDVAEVTAFRGSLLSWYDQEKRDLPWRRRAEDEMDLDRRAYAVWVSEVMLQQTQVATVINYYTGWMQKWPTLQDLASASLEEVNQLWAGLGYYSRGRRLQEGARKVVEELGGHMPRTAETLQQLLPGVGRYTAGAIASIAFGQATGVVDGNVARVLCRVRAIGADPSSTLVSQQLWGLAQQLVDPARPGDFNQAAMELGATVCTPQRPLCSQCPVESLCRARQRVEQEQLLASGSLSGSPDVEECAPNTGQCHLCLPPSEPWDQTLGVVNFPRKASRKPPREESSATCVLEQPGALGAQILLVQRPNSGLLAGLWEFPSVTWEPSEQLQRKALLQELQRWAGPLPATHLRHLGEVVHTFSHIKLTYQVYGLALEGQTPVTTVPPGARWLTQEEFHTAAVSTAMKKVFRVYQGQQPGTCMGSKRSQVSSPCSRKKPRMGQQVLDNFFRSHISTDAHSLNSAAQ

Variants of: B1
Experiment: 8OG:A repair function score (normalized; synonymous = 0, nonsense = -1) (normalized log-likelihood score); higher = more repair activity (WT-like)
Conditions: with 8OG:A DNA repair reporter (GFP) in HEK-293 MUTYH KO cells
Method: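 Saturation mutagenesis (NNN codon scan) of the MUTYH cDNA (521-aa nuclear isoform NM_001048174.1 / NP_001041639), stably expressed under doxycycline induction in HEK-293 MUTYH knockout cells. Cells were co-transfected with an 8OG:A-bearing GFP repair reporter plus mCherry and sorted 72 h later into GFP+ and GFP− bins, three replicates per tile. The Rosace log2 enrichment (GFP+ vs GFP−) was converted per tile to a normalized function score with synonymous variants centered at 0 and nonsense variants (codons 1-471) at -1; low-abundance variants were removed.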

| Variant | 8OG:A repair function score |
| --- | --- |
| E79C | -0.0344 |
| E79V | -0.000865 |
| E79K | 0.0062 |
| E79T | 0.00587 |
| E79P | -0.189 |
| E79S | -0.00165 |
| A89G | -0.0247 |
| A89M | 0.00504 |
| A89H | 0.00693 |
| A89E | -0.00662 |
| A89D | -0.0385 |
| A89L | 0.00692 |
| A89K | -0.0427 |
| A89C | -0.0299 |
| A89I | -0.0304 |
| A89F | -0.0315 |
| L83F | -0.285 |
| L83I | -0.196 |
| L83E | -0.902 |
| L83R | -0.559 |
| L83T | -0.104 |
| L83M | -0.533 |
| L83C | -0.323 |
| L83A | -0.379 |

| Variant | 8OG:A repair function score |
| --- | --- |
| L83P | -0.673 |
| L83W | -0.827 |
| L83G | -0.971 |
| L83Q | -0.947 |
| L83D | -1.02 |
| L83K | -0.987 |
| L83N | -0.585 |
| L83S | -0.387 |
| L83H | -0.597 |
| L83V | -0.316 |
| L83Y | -0.478 |
| W75C | -1.25 |
| W75I | -2.41 |
| W75D | -3.7 |
| W75T | -3.63 |
| W75S | -1.58 |
| W75Y | -0.448 |
| W75F | -0.21 |
| W75G | -1.2 |
| W75N | -2.91 |
| W75H | -0.412 |
| W75M | -1.05 |
| W75E | -1.57 |
| W75R | -1.13 |

| Variant | 8OG:A repair function score |
| --- | --- |
| W75A | -1.3 |
| W75P | -3.8 |
| W75V | -1.78 |
| W75Q | -1.46 |
| W75K | -1.2 |
| W75L | -2.04 |
| S74C | -0.0037 |
| S74K | -0.0253 |
| S74F | -0.0182 |
| S74W | -0.0127 |
| S74D | -0.132 |
| S74G | -0.00226 |
| S74H | 0.00229 |
| S74E | 0.00141 |
| S74M | 0.00605 |
| S74L | -0.0187 |
| S74Y | 0.00544 |
| S74T | -0.0089 |
| S74N | -0.0112 |
| S74R | 0.00425 |
| S74P | 0.00278 |
| S74I | -0.0694 |
| S74Q | 0.00637 |
| S74V | -0.0223 |

| Variant | 8OG:A repair function score |
| --- | --- |
| R81H | -0.3 |
| R81D | -0.524 |
| R81Y | -0.359 |
| R81Q | -0.483 |
| R81N | -0.365 |
| R81P | -0.88 |
| R81W | -0.422 |
| R81I | -0.704 |
| R81K | -0.209 |
| R81T | -0.765 |
| R81S | -0.535 |
| R81C | -1.02 |
| R81A | -0.345 |
| R81M | -0.492 |
| R81V | -0.851 |
| R81E | -0.678 |
| R81L | -0.31 |
| R81G | -0.905 |
| R81F | -1.5 |
| W85D | -1.51 |
| W85Q | -1.14 |
| W85A | -1.08 |
| W85F | -0.238 |
| W85R | -1.51 |

| Variant | 8OG:A repair function score |
| --- | --- |
| W85I | -0.792 |
| W85M | -0.682 |
| W85T | -1.61 |
| W85G | -2.15 |
| W85C | -1.57 |
| W85E | -1.28 |
| W85P | -1.05 |
| W85H | -2.53 |
| W85K | -3 |
| W85L | -0.917 |
| W85N | -1.55 |
| W85Y | -0.864 |
| W85V | -1.12 |
| W85S | -1.22 |
| R88E | -0.00364 |
| R88A | 0.00657 |
| R88Q | -0.0232 |
| R88L | 0.00676 |
| R88D | -0.0653 |
| R88T | 0.00666 |
| R88W | -0.0355 |
| R88M | -0.0202 |
| R88S | -0.00167 |
| R88N | -0.0146 |

| Variant | 8OG:A repair function score |
| --- | --- |
| R88C | -0.0122 |
| R88K | -0.364 |
| R88F | -0.00866 |
| R88G | -0.107 |
| R88I | 0.00568 |
| R88H | 0.0048 |
| R88V | -0.0028 |
| R88Y | -0.0224 |
| R88P | -0.00404 |
| D77R | -0.122 |
| D77N | -0.122 |
| D77H | -0.228 |
| D77C | -0.0754 |
| D77Y | -0.0402 |
| D77Q | -0.0294 |
| D77P | -0.464 |
| D77I | -0.0954 |
| D77A | -0.0463 |
| D77M | -0.0782 |
| D77E | -0.0615 |
| D77K | -0.0637 |
| D77W | -0.0696 |
| D77G | -0.0368 |
| D77S | -0.0758 |

| Variant | 8OG:A repair function score |
| --- | --- |
| D77F | -0.0355 |
| D77V | -0.0835 |
| D77T | -0.0415 |
| D77L | -0.131 |
| R86Q | -2.68 |
| R86P | -0.841 |
| R86C | -0.587 |
| R86G | -1.82 |
| R86M | -1.93 |
| R86V | -1.33 |
| R86S | -1.03 |
| R86H | -1.85 |
| R86W | -1.23 |
| R86L | -0.926 |
| R86D | -1.26 |
| R86A | -0.934 |
| R86N | -1.17 |
| R86E | -2.16 |
| R86T | -0.606 |
| R86F | -1.75 |
| R86Y | -1.03 |
| R86I | -0.915 |
| R86K | -0.756 |
